Drawing on PMC10960872, this text covers percent of parent and other: ΔpEC50 for 2 substances.

Assay [1] addresses NanoBiT Gq: Gαq–LgBiT (wild type) co-expressed with Gβ1 and Gγ2, P50148;P62873;P59768. The experiment in a line: NanoBiT assay (M3-SmBiT with Gαq–LgBiT, Gβ1, Gγ2), basal. To be noted: absence of agonist; parent: est. 78 (WT 1:4, expression-matched; WT 1:1 = 100); read off a plot.
For assay [2] the target is unchanged. The assay is described as follows: NanoBiT assay (M3-SmBiT with Gαq–LgBiT, Gβ1, Gγ2), ACh titration. As to conditions: titrated concentrations of acetylcholine; parent: est. -0.1 (WT 1:4, expression-matched; WT 1:1 = 0); read off a plot.

Take “ssHA-FLAG-M3-SmBiT (wild type), P20309 M3-6A (C-tail KKKRRK to AAAAAA)”: in assay [1], the percent of parent amounted to 46 %RLU. The other: ΔpEC50 in assay [2] was -0.2.

Consider “ssHA-FLAG-M3-SmBiT (wild type), P20309 M3-GS (C-tail KKKRRK to GSGSGS)”, for which the percent of parent in assay [1] amounted to 50 %RLU. For the same substance, the other: ΔpEC50 in assay [2] is -0.3.
